One block for each molecule: values may come before it.
How the values were obtained:
[1] = target: gastrin-releasing peptide receptor (human (endogenous in PC-3)) (UniProt P30550); assay: radioligand binding
[2] = Thermal melting by circular dichroism; type: physicochemical; conditions: pH 7.4
[3] = Biodistribution in mice bearing PC-3 xenografts; type: in vivo, mice (BALB/c nu/nu female); conditions: mouse, in vivo, iv, 40 pmol, 40 pmol i.v., 1 h pi, 4 mice, SD; read-out: activity concentration in blood 1 h pi
Description: (§1) Instant thin-layer chromatography (ITLC) results were analyzed using Cyclone® Plus (PerkinElmer). […] BALB/c nu/nu female mice were implanted subcutaneously with PC-3 cells in PBS (6.5 × 10^6 cells/mouse) on the hind leg. […] A group of four mice was used per data point. […] After euthanization, the organs of interest were collected and weighed, and the radioactivity content was measured on a gamma counter.

PC-3 xenografts = assay: Biodistribution in mice bearing PC-3 xenografts; type: in vivo, mice (BALB/c nu/nu female)
Description: as §1

gastrin-releasing peptide receptor (human (endogenous in PC-3)), sequence (P30550 whole entry): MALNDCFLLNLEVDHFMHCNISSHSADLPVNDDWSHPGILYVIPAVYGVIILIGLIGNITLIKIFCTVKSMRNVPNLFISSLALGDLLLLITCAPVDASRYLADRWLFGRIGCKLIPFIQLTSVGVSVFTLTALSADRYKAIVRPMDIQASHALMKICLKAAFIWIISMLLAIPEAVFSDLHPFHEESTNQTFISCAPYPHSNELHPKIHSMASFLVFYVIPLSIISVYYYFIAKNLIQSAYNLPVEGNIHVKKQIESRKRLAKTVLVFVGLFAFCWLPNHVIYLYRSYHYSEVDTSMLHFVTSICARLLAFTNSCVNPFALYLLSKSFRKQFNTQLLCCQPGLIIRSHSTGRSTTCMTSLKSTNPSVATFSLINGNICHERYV

Molecule: AMALAEAKVLANRELDKYGVSDFYKRLINKAKTVEGVEALKLHILAALP [ABD035, recombinant control protein, reference compound]
melting temperature (Tm) [2]: 54 °C

Molecule: CC[C@H](C)[C@H](NC(=O)[C@H](Cc1c[nH]cn1)NC(=O)[C@H](CC(C)C)NC(=O)[C@H](CCCCN)NC(=O)[C@H](CC(C)C)NC(=O)[C@H](C)NC(=O)[C@H](CCC(=O)O)NC(=O)[C@@H](NC(=O)CNC(=O)[C@H](CCC(=O)O)NC(=O)[C@@H](NC(=O)[C@@H](NC(=O)[C@H](CCCCN)NC(=O)[C@H](C)NC(=O)[C@H](CCCCN)NC(=O)[C@H](CC(N)=O)NC(=O)[C@@H](NC(=O)[C@H](CC(C)C)NC(=O)[C@H](CCCNC(=N)N)NC(=O)[C@H](CCCCN)NC(=O)[C@H](Cc1ccc(O)cc1)NC(=O)[C@H](Cc1ccccc1)NC(=O)[C@H](CC(=O)O)NC(=O)[C@H](CO)NC(=O)[C@@H](NC(=O)CNC(=O)[C@H](Cc1ccc(O)cc1)NC(=O)[C@H](CCCCNC(=O)CSCCC(=O)NCCOCCOCCOCCOCCC(=O)N[C@H](Cc1ccccc1)C(=O)N[C@@H](CCC(N)=O)C(=O)N[C@@H](Cc1c[nH]c2ccccc12)C(=O)N[C@@H](C)C(=O)N[C@H](C(=O)NCC(=O)N[C@@H](Cc1c[nH]cn1)C(=O)N[C@@H](CC(C)C)[C@@H](O)CC(=O)N[C@@H](CC(C)C)C(N)=O)C(C)C)NC(=O)[C@H](CC(=O)O)NC(=O)[C@H](CC(C)C)NC(=O)[C@H](CCC(=O)O)NC(=O)[C@H](CCCNC(=N)N)NC(=O)[C@H](CC(N)=O)NC(=O)[C@H](C)NC(=O)[C@H](CC(C)C)NC(=O)[C@@H](NC(=O)[C@H](CCCCN)NC(=O)[C@H](C)NC(=O)[C@H](CCC(=O)O)NC(=O)[C@H](C)NC(=O)[C@H](CC(C)C)NC(=O)CN1CCN(CC(=O)O)CCN(CC(=O)O)CCN(CC(=O)O)CC1)C(C)C)C(C)C)[C@@H](C)CC)[C@@H](C)O)C(C)C)C(C)C)C(=O)N[C@@H](CC(C)C)C(=O)N[C@@H](C)C(=O)N[C@@H](C)C(=O)N[C@@H](CC(C)C)C(=O)N1CCC[C@H]1C(N)=O [DOTA-ABD-RM26]
uptake in pancreas, intestines and xenografts, ABD-coupled vs parental RM26 (PC-3 xenografts; 1 h pi, discussion): activity uptake was equal both for ABD-coupled and parental RM26
kidney uptake vs tumor uptake (PC-3 xenografts; all studied time points, 1-144 h pi): higher than that in tumors at all studied time points
uptake in liver and bone (PC-3 xenografts; up to 144 h pi): elevated up to 144 h pi

Second part, led by results:

IC50 [1]: 30 nM
Molecule: DOTA-ABD-RM26 (designed binder)

IC50 [1]: 49 nM
Molecule: DOTA-ABD-RM26 bound to human serum albumin (from UniProt P02768 25-609) (complex)

tissue uptake at 1 h [3]: 0.27 ± 0.04 %ID/g
Molecule: CC(C)C[C@H](NC(=O)C[C@H](O)[C@H](CC(C)C)NC(=O)[C@H](Cc1c[nH]cn1)NC(=O)CNC(=O)[C@@H](NC(=O)[C@H](C)NC(=O)[C@H](Cc1c[nH]c2ccccc12)NC(=O)[C@H](CCC(N)=O)NC(=O)[C@@H](Cc1ccccc1)NC(=O)COCCOCCNC(=O)CN1CCN(CC(=O)O)CCN(CC(=O)O)CCN(CC(=O)O)CC1)C(C)C)C(N)=O [[^111In]In-DOTA-RM26, metal not drawn, reference compound]
pancreas and tumor uptake, [^111In]In-DOTA-ABD-RM26 vs [^111In]In-DOTA-RM26 (PC-3 xenografts; 1 h pi): on the same level for both radiolabelled conjugates
